The values below come from the supplement of paper PMC7877785.

A short description of the series: self-splicing fitness, log relative to wild type (ln ratio); higher = more splicing; Tetrahymena group I intron in knt gene, E. coli kanamycin selection, DiMSum; sequences stand for … in CUCUCU…GGAGGGAAAAGUUAUCAGGCAUGCACCUGGUAGCUAGUCUUUAAACCAAUAGAUUGCAUCGGUUUAAAAGGCAAGACCGUCAAAUUGCGGGAAAGGGGUCAACAGCCGUUCAGUACCAAGUCUCAGGGGAAACUUUGAGAUGGCCUUGCAAAGGGUAUGGUAAUAAGCUGACGGACAUGGUCCUAACCACGCAGCCAAGUCCUAAGUCAACAGAUCUUCUGUUGAUAUGGAUGCAGUUCACAGACUAAAUGUCGGUCGGGGAAGAUGUAUUCUUCUCAUAAGAUAUAGUCGGACCUCUCCUUAAUGGGAGCUAGCGGAUGAAGUGAUGCAACACUGGAGCCGCUGGGAACUAAUUUGUAUGCGAAAGUAUAUUGAUUAGUUUUGGAGUACUCGUGGUCG
In outline: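 Colonies from six replicate transformations of E. coli BL21(DE3) were pooled and amplicon-sequenced on an Illumina HiSeq 2500. The library placed an intron with all eight P1ex-region nucleotides randomised inside the knt kanamycin-resistance gene on pET-22b(+), and cells grew overnight at 37°C or 30°C on LB agar with or without 25 μg/mL kanamycin (plus 100 μg/mL carbenicillin, 50 μM IPTG, 0.2% rhamnose). Fitness is the DiMSum error-weighted combination of wild-type-normalised replicate fold changes, kanamycin versus none.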

± gives the uncertainty stated by the source.

Regarding UGAAAGCAAUAUUACGACGA, the “self-splicing fitness (ln)” value is, setting by setting: (30 °C) -0.661 ± 0.12; (37 °C) -0.101 ± 0.12.
Take GCAGAGCAAUAUUACGACAC: the “self-splicing fitness (ln)” value (30 °C) is -1.46 ± 0.2 and the “self-splicing fitness (ln)” value (37 °C) is -0.344 ± 0.33.
The matching figures for CCGGAGCAAUAUUACGCGAG: -2.87 ± 0.3 and -1.79 ± 0.27.
The matching figures for CUGCAGCAAUAUUACGAAAU: -3.51 ± 0.37 and -1.62 ± 0.18.
In the case of ACUAAGCAAUAUUACGUUAC, the “self-splicing fitness (ln)” value (30 °C) is -3.81 ± 0.2 and the “self-splicing fitness (ln)” value (37 °C) was -3.08 ± 0.3.
Regarding AUUAAGCAAUAUUACGGUAG, the “self-splicing fitness (ln)” value runs as follows: (30 °C) -4.09 ± 0.29; (37 °C) -2.57 ± 0.22.
In the case of CGGUAGCAAUAUUACGGACU, the “self-splicing fitness (ln)” value (30 °C) was -1.25 ± 0.16 and the “self-splicing fitness (ln)” value (37 °C) was -0.871 ± 0.2.
As to GGGCAGCAAUAUUACGGGGU, the “self-splicing fitness (ln)” value (37 °C) was -2.84 ± 0.34.
On to UAGCAGCAAUAUUACGGGAG, for which the “self-splicing fitness (ln)” value is -2.58 ± 0.099 (30 °C) and -2.11 ± 0.11 (37 °C).
Take GUCGAGCAAUAUUACGACCG: the “self-splicing fitness (ln)” value (30 °C) is -1.69 ± 0.5.
For the sequence UUUUAGCAAUAUUACGGUUU, the “self-splicing fitness (ln)” value reads like this: (30 °C) -3.26 ± 0.47; (37 °C) -0.0249 ± 0.25.
Turning to GCGUAGCAAUAUUACGAAUA, the “self-splicing fitness (ln)” value reads like this: (30 °C) -0.7 ± 0.12; (37 °C) -1.13 ± 0.11.
Consider UCCUAGCAAUAUUACGCUGC, for which, under “37 °C”, the “self-splicing fitness (ln)” value is -2.02 ± 0.29.
For the sequence AGGAAGCAAUAUUACGUGCG, the “self-splicing fitness (ln)” value (30 °C) is -1.01 ± 0.1 and the “self-splicing fitness (ln)” value (37 °C) is -1.04 ± 0.13.
Taken in the same sequence, the figures for GAAUAGCAAUAUUACGGGGG were -2.93 ± 0.26 and -1.87 ± 0.25.
As for ACCCAGCAAUAUUACGUAAC, the “self-splicing fitness (ln)” value was -1.49 ± 0.065 (30 °C) and -1.17 ± 0.1 (37 °C).
Regarding CCACAGCAAUAUUACGCGCA, the “self-splicing fitness (ln)” value (30 °C) was -3.95 ± 0.3 and the “self-splicing fitness (ln)” value (37 °C) was -3.06 ± 0.24.
On to CCCAAGCAAUAUUACGAGUU, for which the “self-splicing fitness (ln)” value is, setting by setting: (30 °C) -3.89 ± 0.14; (37 °C) -2.68 ± 0.14.
With GUCAAGCAAUAUUACGGACU, the “self-splicing fitness (ln)” value (30 °C) was -4.38 ± 0.39 and the “self-splicing fitness (ln)” value (37 °C) was -2.72 ± 0.26.
GCUCAGCAAUAUUACGCCCA: the “self-splicing fitness (ln)” value was -1.99 ± 0.25 (30 °C) and -1.09 ± 0.23 (37 °C).
Taken in the same sequence, the figures for GCACAGCAAUAUUACGUACG were -0.945 ± 0.092 and -0.0901 ± 0.098.
Take GAGGAGCAAUAUUACGAUAU: the “self-splicing fitness (ln)” value (30 °C) is -1.34 ± 0.26 and the “self-splicing fitness (ln)” value (37 °C) is -2.53 ± 0.45.
Take GGGAAGCAAUAUUACGUCGC: the “self-splicing fitness (ln)” value is -1.83 ± 0.16 (30 °C) and -0.302 ± 0.17 (37 °C).
With CCCAAGCAAUAUUACGUACC, the “self-splicing fitness (ln)” value (37 °C) was -1.82 ± 0.28.
Turning to UCGUAGCAAUAUUACGAUGG, the “self-splicing fitness (ln)” value by setting is: (30 °C) -1.88 ± 0.12; (37 °C) -1.07 ± 0.14.
In the case of ACUUAGCAAUAUUACGGACG, the “self-splicing fitness (ln)” value runs as follows: (30 °C) -1.59 ± 0.1; (37 °C) -0.553 ± 0.12.
The matching figures for AAUGAGCAAUAUUACGGUGG: -3.48 ± 0.21 and -1.89 ± 0.24.
As to UUGGAGCAAUAUUACGACGG, the “self-splicing fitness (ln)” value is, setting by setting: (30 °C) 0.664 ± 0.22; (37 °C) -0.775 ± 0.29.
As for GGAAAGCAAUAUUACGGUUU, the “self-splicing fitness (ln)” value runs as follows: (30 °C) -1.02 ± 0.061; (37 °C) -0.46 ± 0.082.
As to CAAAAGCAAUAUUACGGGGG, the “self-splicing fitness (ln)” value is, setting by setting: (30 °C) -3.13 ± 0.18; (37 °C) -2.38 ± 0.15.
The matching figures for UAUUAGCAAUAUUACGAUUU: -1.76 ± 0.14 and -0.438 ± 0.12.
Consider UCAUAGCAAUAUUACGUGGC, for which the “self-splicing fitness (ln)” value (37 °C) was -2.73 ± 0.43.
As to CUCUAGCAAUAUUACGCCCA, the “self-splicing fitness (ln)” value (30 °C) is -2.25 ± 0.4.
Turning to CCAGAGCAAUAUUACGAGAC, the “self-splicing fitness (ln)” value is -4.31 ± 0.46 (30 °C) and -2.66 ± 0.3 (37 °C).
Regarding CGUUAGCAAUAUUACGGGCC, the “self-splicing fitness (ln)” value is -1.91 ± 0.18 (30 °C) and -1.75 ± 0.24 (37 °C).
